Target: T1, insoluble fibrin (Homo sapiens, UniProt P02675+P02679)
T1 sequence (P02675 45-491 limits assumed): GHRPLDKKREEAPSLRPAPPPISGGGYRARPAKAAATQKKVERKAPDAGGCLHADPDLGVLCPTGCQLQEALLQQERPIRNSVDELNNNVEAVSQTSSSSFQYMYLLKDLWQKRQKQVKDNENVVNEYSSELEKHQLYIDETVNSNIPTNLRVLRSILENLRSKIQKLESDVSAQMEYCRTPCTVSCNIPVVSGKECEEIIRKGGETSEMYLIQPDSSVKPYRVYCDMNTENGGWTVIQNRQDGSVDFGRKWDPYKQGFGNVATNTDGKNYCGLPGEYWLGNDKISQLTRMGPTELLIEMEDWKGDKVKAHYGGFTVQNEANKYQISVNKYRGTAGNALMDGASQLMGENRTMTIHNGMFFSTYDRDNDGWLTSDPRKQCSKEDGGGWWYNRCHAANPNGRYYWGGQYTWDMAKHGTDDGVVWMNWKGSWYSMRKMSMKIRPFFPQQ
T1 sequence (P02679 27-453): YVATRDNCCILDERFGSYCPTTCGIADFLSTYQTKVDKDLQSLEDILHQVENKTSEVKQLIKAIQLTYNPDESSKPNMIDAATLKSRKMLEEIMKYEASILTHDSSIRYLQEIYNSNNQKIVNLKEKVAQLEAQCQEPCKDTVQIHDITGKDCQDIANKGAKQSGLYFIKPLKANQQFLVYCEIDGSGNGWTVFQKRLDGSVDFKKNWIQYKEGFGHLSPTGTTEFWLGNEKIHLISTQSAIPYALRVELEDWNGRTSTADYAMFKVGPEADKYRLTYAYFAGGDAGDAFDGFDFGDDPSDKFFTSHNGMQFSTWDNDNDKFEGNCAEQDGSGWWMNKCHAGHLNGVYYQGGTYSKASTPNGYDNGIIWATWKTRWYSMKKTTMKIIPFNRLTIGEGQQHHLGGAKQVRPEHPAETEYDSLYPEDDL
Assay: ELISA method of Example 2, fibrin plate
Format: binding
Conditions: antibody 10 μg/mL
Method: Each of the antibody solutions (100 μL each) at 10 μg/mL was added to the fibrin plate and the fibrinogen plate, and allowed to stand at room temperature for 1 hour. After washing with TBS-T, Bethyl Anti-Human IgG-HRP (×1000 dilution) or Bethyl Anti-Mouse IgG-HRP (×10000 dilution) was added as a secondary antibody. Then, after washing with TBS-T, colorimetry was conducted with OPD for 10 minutes, and measurement was conducted at an absorption wavelength of 492 nm.

B1: Fib-0355 antibody: monoclonal anti-β chain antibody produced by hybridoma Fib-0355; L chain variable region SEQ ID NO: 11, H chain variable region SEQ ID NO: 15 (antibody, listed as Mus musculus, V domains shown)
VH: GPELKKPGETVKISCKASGYTFTNYGMNWVKQAPGKGLKWMGWINTNTGEPTYAEEFKGRFAFSLETSASTAYLQINNLKNEDTATYFCARLLDYWGQGTTLTVSS
VL: PSSLAVSAGEKVTMSCKSSQSVLYSSNQKNYLAWYQQKPGQSPKLLIYWASTRESGVPDRFTGSGSGTDFTLTISSVQAEDLAVYYCQQYLSSYTFGG
modifications: SITE (1)..(106) Variable Region of Heavy Chain (Fib-0355); SITE (1)..(98) Variable Region of Light Chain(Fib-0355)
affinity for insoluble fibrin (absorbance at 492 nm) relative to that of the 102-10 antibody: 12 times

B2: 34-105 antibody: monoclonal anti-γ chain antibody produced by hybridoma 34-105; L chain variable region SEQ ID NO: 3, H chain variable region SEQ ID NO: 7 (antibody, listed as Mus musculus, V domains shown)
VH: EVKLQESGGGLVKPGGSLKLSCAASGFTFSSYAMSWVRQTPEKRLEWVAAISSGGTTYYPDSVKGRFTISRDNARNILYLQMSSLRSEDTAMYYCVRGGTIGAYWGQGTLVTVSA
VL: DIVITQSPASLAVSLGQRATISYRASKSVSTSGYSYMHWNQQKPGQPPRLLIYLVSNLESGVPARFSGSGSGTDFTLNIHPVEEEDAATYYCQHIRELTRSEGGPSWK
modifications: SITE (1)..(115) Variable Region of Heavy Chain (34-105); SITE (1)..(108) Variable Region of Light Chain(34-105)
affinity for insoluble fibrin (absorbance at 492 nm) relative to that of the 102-10 antibody: 16 times | ratio of the affinity for insoluble fibrin to the affinity for fibrinogen (absorbance at 492 nm): 25 times

From patent US9429584B2, “Antibody against insoluble fibrin” (National Cancer Center, priority 2013, dated 2016)
